Results taken from the DeepSol protein solubility set.

assay: soluble on expression in E. coli; label from the status in PepcDB or PDB records

| Sequence | soluble on expression in E. coli |
| --- | --- |
| MQLFDLSLEELKKYKPKKTARPDFSDFWKKSLEELRQVEAEPTLESYDYPVKGVKVYRLTYQSFGHSKIEGFYAVPDQTGPHPALVRFHGYNASYDGGIHDIVNWALHGYATFGMLVRGQGGSEDTSVTPGGHALGWMTKGILSKDTYYYRGVYLDAVRALEVIQSFPEVDEHRIGVIGGAQGGALAIAAAALSDIPKVVVADYPYLSNFERAVDVALEQPYLEINSYFRRNSDPKVEEKAFETLSYFDLINLAGWVKQPTLMAIGLIDKITPPSTVFAAYNHLETDKDLKVYRYFGHEFIPAFQTEKLSFLQKHLLLST | soluble |
| MQLKRKNSVFIDPRIQEVAGPCEPSDNGNNEEEDKIISIRATASSASITKESVPEAPPTHFIPVVVTVEPDAWEKFRDIIQVNRNIVIVKVGRWLMSSFMPGDQISLVNGTAIWNSDDLENQVRGPKKETKTEVTVIRVWNLKCLTDIQLDKLLVPPEEQLHYFSVKVYSSKGTIGLKLCLDKKRVLVELIRAKTPVNSALLVGDQILGINDELLTAKSKRALRKQVAEVMKKSIKKQGFAEIIACRQVIARSSPAPSLEAELSEKFANYAVGVEKGTRIEKKDSSETNSLPLHSDALEIALRELACLKQWIVESSTEVPPCDKGPTLMIDPPTAPGSAEGCPPPLVKAKSTTNAIERSVYFPLSTTAAVAILVSTPKKRSIFRQQDRNSAINFAEQPDHEKITSDIPEEDDLKKCEPMSGIAAYIKKKFN | not soluble |
| MQLQPFSQACENNKVPILAVLKSAFANTTRVLEIGSGTGQHAVYFATNLPQLFWQTSDQAEYLEGIKARCLLQGHQLGINNLGFPITLDVTAPWPVNGTHIDAVFSANTLHIMSKSMVEAFFNGLGEYLPQLNTLCIYGPFNYQGHYTSDSNRQFDHFLKQRDSESGIRDIEWIIALAQAQGLTLVEDIAMPTNNRLLHFKHLLALEHHHHHH | not soluble |
| MQMCFSKSAQHHSKVKQRNSLLEIMENCFEMMVARCIKIGTVQTLTMLGLLPEVVTISQAEDIYGKRLITEWREKAWIKFYPANNKERGKYYVKRSELETASAMMDLHNKVPDNIIKQLMQLTV | not soluble |
| MQNAEKLDFKITGGWIIDGTGAPRRRADLGVRDGRIAAIGELGAHPARHAWDASGKIVAPGFIDVHGHDDLMFVEKPDLRWKTSQGITTVVVGNCGVSAAPAPLPGNTAAALALLGETPLFADVPAYFAALDAQRPMINVAALVGHANLRLAAMRDPQAAPTAAEQQAMQDMLQAALEAGAVGFSTGLAYQPGAVAQAAELEGLARVAAERRRLHTSHIRNEADGVEAAVEEVLAIGRGTGCATVVSHHKCMMPQNWGRSRATLANIDRAREQGVEVALDIYPYPGSSTILIPERAETIDDIRITWSTPHPECSGEYLADIAARWGCDKTTAARRLAPAGAIYFAMDEDEVKRIFQHPCCMVGSDGLPNDARPHPRLWGSFTRVLGRYVREARLMTLEQAVARMTALPARVFGFAERGVLQPGAWADVVVFDPDTVADRATWDEPTLASVGIAGVLVNGAEVFPQPPADGRPGQVLRAGA | soluble |
| MQNISIAENNRTGIPVQSLSYEQAAKGPTGSIMTEGYAKAIANYAYVWGWPMVNMHNRREAFKQVPYQGYIGGAMPAAPINHLTMLSDYVSPNMRDVAHPNQDVVYGFGMLSLDKEPVVIQVPDFGDRFWTVMAEDQRTDSFAQLSSIYDSKPGFYMIVSPEWDGEIPEGINKVFRSSTDLAVVIPRVFMDDTAEDREAIQSVVNQLGAYPLSEFTGIMKITNWKSLPNIPEAKKTKSEKTWVNPNMFFSAEQLGKVLEEVSPLPGEEAMYAQFKELLLQAEENKELQKILNDVANEAEMNIVTPLFRLENVGKEINNYWTRPQDNGRFGTDYLTRLAVAKSNIFTNDVTETSYLYQYKDENGTRINGNHNYTLTFKKGELPPVDGFWSLTMYNSNHFFVPNDIKRYSIGTKNKGMKYNKDGSLTIYIQNEKPSEDKIGNWLPAPKDDIAMTIRAYGPKEEMLSGTWQPPAVVKIKLEHHHHHH | soluble |
| MQNNDFRTGSGSLKGSSTGVLKQFLFENVFICRIGVIKSFDFETQKGVVTIKEYEGLEISTCSISNFNFDLTAEDEVILLQSNFNIFQESDNNHFDKNYFYILSVLNPKKIGIRLDQFELSVQELGAQSENIKFKAKKLIIDVDNIEIKGNLKINGTKFENHMHSSGTLTYVNSSGVPTTTTGKTGPIA | soluble |
| MQPGGDMSALLAQAQQMQQKLLEAQQQLANSEVHGQAGGGLVKVVVKGSGEVIGVTIDPKVVDPDDIETLQDLIVGAMRDASQQVTKMAQERLGALAGAMRPPAPPAAPPGAPGMPGMPGMPGAPGAPPVPGI | not soluble |
| MQPIEFLEGGCLCGAIRYRIEGNPFDADYCHCRMCQKSIGAAFGAWMDFNVSQVTWLKGNVTEFASSDFVRRGFCAQCGCSLTYRHTEYPDYLTLTIASFDDPNLVQPNYHIYTEQQLSWLKIEDNCQRYPQARTK | soluble |
| MQPMTARFDLFVVGSGFFGLTIAERVATQLDKRVLVLERRPHIGGNAYSEAEPQTGIEVHKYGAHLFHTSNKRVWDYVRQFTDFTDYRHRVFAMHNGQAYQFPMGLGLVSQFFGKYFTPEQARQLIAEQAAEIDTADAQNLEEKAISLIGRPLYEAFVKGYTAKQWQTDPKELPAANITRLPVRYTFDNRYFSDTYEGLPTDGYTAWLQNMAADHRIEVRLNTDWFDVRGQLRPGSPAAPVVYTGPLDRYFDYAEGRLGWRTLDFEVEVLPIGDFQGTAVMNYNDLDVPYTRIHEFRHFHPERDYPTDKTVIMREYSRFAEDDDEPYYPINTEADRALLATYRARAKSETASSKVLFGGRLGTYQYLDMHMAIASALNMYDNVLAPHLRDGVPLLQDGA | soluble |
| MQPWQTDPTRAPVATKIVVAGGFGVGKTTLVTAVSEITPLQTEALMTEASEETDDLTATPGKLTTTVAMDFGRITLDDDLVLYLFGTPGQQRFWFMWDDLVRGAIGAVVLADTRRLKDCWPALDYFESCGLPYVVAVNHFDGSELFEAEDVREALTIPAHIPVMIMDARRRISAIETLLSLVGHALDETPELEHHHHHH | not soluble |
| MQQKLENIKFVITDVDGVLTDGQLHYDANGEAIKSFHVRDGLGIKMLMDADIQVAVLSGRDSPILRRRIADLGIKLFFLGKLEKETACFDLMKQAGVTAEQTAYIGDDSVDLPAFAACGTSFAVADAPIYVKNAVDHVLSTHGGKGAFREMSDMILQAQGKSSVFDTAQGFLKSVKSMGQLEHHHHHH | soluble |
| MQQVIPAPRVQVTQPYAGQKPGTSGLRKKVSEATQPNYLENFVQSIFNTLRKDELKPKNVLFVGGDGRYFNRQAIFSIIRLAYANDISEVHVGQAGLMSTPASSHYIRKVNEEVGNCIGGIILTASHNPGGKEHGDFGIKFNVRTGAPAPEDFTDQIYTHTTKIKEYLTVDYEFEKHINLDQIGVYKFEGTRLEKSHFEVKVVDTVQDYTQLMQKLFDFDLLKGLFSNKDFSFRFDGMHGVAGPYAKHIFGTLLGCSKESLLNCDPSEDFGGGHPDPNLTYAHDLVELLDIHKKKDVGTVPQFGAACDGDADRNMILGRQFFVTPSDSLAVIAANANLIFKNGLLGAARSMPTSGALDKVAAKNGIKLFETPTGWKFFGNLMDAGLINLCGEESFGTGSNHIREKDGIWAVLAWLTILAHKNKNTDHFVTVEEIVTQYWQQFGRNYYSRYDYEQVDSAGANKMMEHLKTKFQYFEQLKQGNKADIYDYVDPVDQSVSKNQGVRFVFGDGSRIIFRLSGTGSVGATIRIYFEQFEQQQIQHETATALANIIKLGLEISDIAQFTGRNEPTVIT | soluble |
| MQSITPPLIAVIGSDASGKSTVCEHLITVVEKYGAAERVHLGKQAGNVGRAVTKLPLMGKSLHKTIERNQVKTAKKLPGPVPALVITAFVARRLLRFRHMLACRRRGLIVLTDRYPQDQIPGAYDGTVFPPNVEGGRFVSWLASQERKAFHWMASHKPDLVIKLNVDLEVACARKPDHKRESLARKIAITPQLTFGGAQLVDIDANQPLEQVLVDAEKAITDFMTARGYH | not soluble |
| MQSQWCARQQDMIAVYGALAEQCDYALHLGLTEAGMGSKGIVASTAALAVLLFKGIGDTIRVSLTPEPGGDRAREVIVAQEILQTMGLRAFVPLVAACPGCGRTTSTYFQELAESIQIYVREQMVIWREQYEGVENMSLAVMGCVVNGPGESKHADIGISLPGSGETPVAPVFVDGQKTVTLKGDNIAGEFRMIVDEYVRTKYRKKAANALEHHHHHH | not soluble |
| MQSTIRKQLLQVFSEADGEFVSGQTISDKLGCSRTAVWKHMEDLRNEGYELEAVRRLGYRIASKPDKVTANEIQLGLQTKHIGRTVYFEESVESTQHIAAKLAYEGAEEGTIVVAEEQTAGRGRLSRKWHSPKGTGIWMSIILRPSIPVHHAPQLTLLAAVSVAQAIEKCTGVNVGIKWPNDILIQGKKAVGILTEMQADPDKINAVIMGIGINANQKQEHFDEEIQHIATSLAIESGKPIVRAELMQQIFLQLEKLYEEYLQNGFSVIKILWESYAVSIGKEINARTMRETITGVAKGITEDGVLLLEDHEGKVHHIHSADIEIK | not soluble |
| MQSTVAFISHRSTHKDFVRKIVDTVKRDNCIVDEFDFYPATKTVNEIVRNLNFAPIFVLLISKDALESDWIKLEMSKARQLYDTGVIREFMPFIIEEGVKLEELPSWMTRDWSLNIKTITSPKIIGQFIIETQRKIRCVGNNAYGNWINTFIGRSNELDEFQRAMYDSVYMPHRSLIVSGKPGSGRTRFIQKCIQDSSGLSFIPEGFQIKLPQKTYLDNFILQLHEGLGFSKASYEDILKLDHEHQITKCVSYINQIINAHSFLLIEDEMSFVSYDGTISEWGKEIISHPAMIDSLKIFISSRVKPRYSELRAYPQIIHINLSGFTKDERKRLFVNCCRYYNVQLNDSDVDFFVDRLQSSPQQLEQAVREIKDKNVRFAKKDIKNLIAIGDEVFSRVISWFKGDETALTLAKVLAEVDMISFDLLEQLYEEDYPKIEQLVNNFESLSILDFYGPGGNNISLDGGVSDYIRRSKLDLDPIMKTRIEEIIFNKIDTAEDDLGELSIFLHDLRKQLLSGKGFAYVMPSIVISTVIDLYNQGSYDSVKDICLHALEHCSSYTEEPLQELYYRLCQVLARMKDRIFFTYIDKIKDKGSKDFLYGFYYRYKEDYSKAEEYLLKALDFNSNMQIARRELVNVYLNQEKYTKALPLAKENYNRKSTNSYHIEAYFRCLLNHYPWNTETEDTLNRLLKEMEENFSKRKDELLASMQLEYFIKSRNHTKEEIKEKIQETLIVYPNSPQVYRIKEEFERDKSRFCKSCNC | not soluble |
| MQTLILMAYIKRLVSEGKHASLREAYYANKHTVPGTRENTFEDQSESDPIIEDLERMLGVLREEMHITADRRGYIYGDIVIKDGEDEFNASKLGTGGWAVPGTVEHIQFPEINVDYVLVVETAAMADRLIEEKYPKRENCLIVATQGQASRGVRRLIHRLHYEEGLPIIVFTDGDPYGWYIYSTIKRGSINLAYLSEKLATPDAKFVGMTMDDIKEYNLENVTEKLKGIPPDKKGGPTGDYKRLIEELNYPWFQDKEWQRQLKLALKWGVRIEQQALANKSLEFVAKEYLPEKIREGKLLP | soluble |
| MQTWQLPEHIADVLPTNARQLESAREQLLALFRVHGYELVQPPLMEYAHSLLTHIDAGLSLKTILVTDRLSGRQLGIRADITPQVARIDAHLLSANQGINRLCYAGPVLHAQPDGLLNMREPLQAGAEMYGFADIRGDIELIDLMLKSMKIADMGKVLLSLGHIGIFRALSDAAHLDAGQSATLLALMQDKDTGAVEAQVKAWKLDGMWAKAFSLLPRLYGGREVLSDARGRLPDLSAVGGALGELQAVCDAFPDCEIHIDLSELRVDNYHTGLLYAAYAADFHDAVARGGRYDGLGGYFGRARPATGFSFDLRSFIGRLPAIERQPAVLVDAEDAEAAHEAVEALREQGQCVVIDYGIGHNVSEELAGRLKKTDGVWQVVKR | not soluble |
